B1: CE115HA000 N31W (antibody, name in Kabat numbering, V domains shown)
VH: QVQLVESGGGVVQPGRSLRLSCAASGFTFSWAWMHWVRQAPGKGLEWVAQIKAKSNNYATYYAESVKGRFTISRDDSKNSLYLQMNSLKTEDTAVYYCRYVHYGAYYGVDAWGQGTTVTVSS
VL: DIVMTQSPLSLPVTPGEPASISCRSSQSLVHSNRNTYLHWYQQKPGQAPRLLIYKVSNRFSGVPDRFSGSGSGTDFTLKISRVEAEDVGVYYCGQGTQVPYTFGQGTKLEIK
B2: CE115HA000 S52cV (antibody, name in Kabat numbering, V domains shown)
VH: B1 VH with W31N, S55V
VL: B1 VL
B3: CE115HA000 Q50E (antibody, name in Kabat numbering, V domains shown)
VH: B1 VH with W31N, Q50E
VL: B1 VL
B4: CE115HA000 N53K (antibody, name in Kabat numbering, V domains shown)
VH: B1 VH with W31N, N56K
VL: B1 VL
B5: CE115HA000 S30D (antibody, name in Kabat numbering, V domains shown)
VH: B1 VH with S30D, W31N
VL: B1 VL
B6: CE115HA000 N53A (antibody, name in Kabat numbering, V domains shown)
VH: B1 VH with W31N, N56A
VL: B1 VL
B7: CE115HA000 Q50A (antibody, name in Kabat numbering, V domains shown)
VH: B1 VH with W31N, Q50A
VL: B1 VL
B8: CE115HA000 S62E (antibody, name in Kabat numbering, V domains shown)
VH: B1 VH with W31N, S65E
VL: B1 VL
B9: CE115HA000 S52cG (antibody, name in Kabat numbering, V domains shown)
VH: B1 VH with W31N, S55G
VL: B1 VL
B10: CE115HA000 Q50Y (antibody, name in Kabat numbering, V domains shown)
VH: B1 VH with W31N, Q50Y
VL: B1 VL
B11: CE115HA000 S52cQ (antibody, name in Kabat numbering, V domains shown)
VH: B1 VH with W31N, S55Q
VL: B1 VL
B12: CE115HA000 S52cK (antibody, name in Kabat numbering, V domains shown)
VH: B1 VH with W31N, S55K
VL: B1 VL
B13: CE115HA000 N54A (antibody, name in Kabat numbering, V domains shown)
VH: B1 VH with W31N, N57A
VL: B1 VL
B14: CE115HA000 Q50L (antibody, name in Kabat numbering, V domains shown)
VH: B1 VH with W31N, Q50L
VL: B1 VL
B15: CE115HA000 R19T (antibody, name in Kabat numbering, V domains shown)
VH: B1 VH with R19T, W31N
VL: B1 VL
B16: CE115HA000 Q50S (antibody, name in Kabat numbering, V domains shown)
VH: B1 VH with W31N, Q50S
VL: B1 VL
B17: CE115HA000 S52cD (antibody, name in Kabat numbering, V domains shown)
VH: B1 VH with W31N, S55D
VL: B1 VL
B18: CE115HA000 N54L (antibody, name in Kabat numbering, V domains shown)
VH: B1 VH with W31N, N57L
VL: B1 VL
B19: CE115HA000 S52cF (antibody, name in Kabat numbering, V domains shown)
VH: B1 VH with W31N, S55F
VL: B1 VL
B20: CE115HA000 N31Y (antibody, name in Kabat numbering, V domains shown)
VH: B1 VH with W31Y
VL: B1 VL
B21: CE115HA000 N54G (antibody, name in Kabat numbering, V domains shown)
VH: B1 VH with W31N, N57G
VL: B1 VL
B22: CE115HA000 N53G (antibody, name in Kabat numbering, V domains shown)
VH: B1 VH with W31N, N56G
VL: B1 VL
B23: CE115HA000 N53I (antibody, name in Kabat numbering, V domains shown)
VH: B1 VH with W31N, N56I
VL: B1 VL
B24: CE115HA000 S30G (antibody, name in Kabat numbering, V domains shown)
VH: B1 VH with S30G, W31N
VL: B1 VL
B25: CE115HA000 S52cL (antibody, name in Kabat numbering, V domains shown)
VH: B1 VH with W31N, S55L
VL: B1 VL
B26: CE115HA000 N53H (antibody, name in Kabat numbering, V domains shown)
VH: B1 VH with W31N, N56H
VL: B1 VL
B27: CE115HA000 N54D (antibody, name in Kabat numbering, V domains shown)
VH: B1 VH with W31N, N57D
VL: B1 VL
B28: CE115HA000 N54K (antibody, name in Kabat numbering, V domains shown)
VH: B1 VH with W31N, N57K
VL: B1 VL
B29: CE115HA000 R16E (antibody, name in Kabat numbering, V domains shown)
VH: B1 VH with R16E, W31N
VL: B1 VL
B30: CE115HA000 N54Q (antibody, name in Kabat numbering, V domains shown)
VH: B1 VH with W31N, N57Q
VL: B1 VL
B31: CE115HA000 N54F (antibody, name in Kabat numbering, V domains shown)
VH: B1 VH with W31N, N57F
VL: B1 VL
B32: CE115HA000 Q50K (antibody, name in Kabat numbering, V domains shown)
VH: B1 VH with W31N, Q50K
VL: B1 VL
B33: CE115HA000 N53D (antibody, name in Kabat numbering, V domains shown)
VH: B1 VH with W31N, N56D
VL: B1 VL
B34: CE115HA000 N53S (antibody, name in Kabat numbering, V domains shown)
VH: B1 VH with W31N, N56S
VL: B1 VL
B35: CE115HA000 N53Q (antibody, name in Kabat numbering, V domains shown)
VH: B1 VH with W31N, N56Q
VL: B1 VL
B36: CE115HA000 N53W (antibody, name in Kabat numbering, V domains shown)
VH: B1 VH with W31N, N56W
VL: B1 VL
B37: CE115HA000 Q50D (antibody, name in Kabat numbering, V domains shown)
VH: B1 VH with W31N, Q50D
VL: B1 VL
B38: CE115HA000 S62D (antibody, name in Kabat numbering, V domains shown)
VH: B1 VH with W31N, S65D
VL: B1 VL
B39: CE115HA000 Q105E (antibody, name in Kabat numbering, V domains shown)
VH: B1 VH with W31N, Q114E
VL: B1 VL
B40: CE115HA000 R16Q (antibody, name in Kabat numbering, V domains shown)
VH: B1 VH with R16Q, W31N
VL: B1 VL
B41: CE115HA000 N54S (antibody, name in Kabat numbering, V domains shown)
VH: B1 VH with W31N, N57S
VL: B1 VL
B42: CE115HA000 Q50I (antibody, name in Kabat numbering, V domains shown)
VH: B1 VH with W31N, Q50I
VL: B1 VL
B43: CE115HA000 S52cA (antibody, name in Kabat numbering, V domains shown)
VH: B1 VH with W31N, S55A
VL: B1 VL

Numbering of substitutions follows the chain as printed. Names and notes keep the numbering of the source.
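Also: biacore SPR with antibody variants flowed as analyte over amine-coupled CD3ε homodimer on a CM chip, bound amount of each single-residue H chain variant over that of parent.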

T1 sequence (P07766 23-126 limits assumed): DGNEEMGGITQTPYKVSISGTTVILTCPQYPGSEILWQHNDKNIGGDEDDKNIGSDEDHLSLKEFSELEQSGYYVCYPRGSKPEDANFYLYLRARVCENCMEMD

The test addresses T1, CD3ε homodimer protein (human, UniProt P07766 23-126, limits assumed, sulfo-tag or biotin label in some ECL assays).
T1 construct: also called human CD3ε homodimer protein; CD3 (CD3ε)
The test is described as follows: SPR, CD3ε homodimer on chip. (SPR reads the build-up and loss of mass on a sensor chip optically.)
Description: An appropriate amount of CD3ε homodimer protein was immobilized onto Sensor chip CM4 (GE Healthcare Japan Corp.) by the amine coupling method. Then, the antibody having an appropriate concentration was injected thereto as an analyte and allowed to interact with the CD3ε homodimer protein on the sensor chip. Then, the sensor chip was regenerated by the injection of 10 mmol/L glycine-HCl (pH 1.5). The assay was conducted at 25° C., and HBS-EP+ (GE Healthcare Japan Corp.) was used as a running buffer. […] Each parameter was calculated using Biacore T200 Evaluation Software (GE Healthcare Japan Corp.).
Specifically, when the amount of the antibody comprising CE115HA000 bound was defined as X and the amount of the H chain one-amino acid altered form bound was defined as Y, a value of Z (ratio of amounts bound)=Y/X was used.
Regarding B1, the “ratio of amounts bound vs CE115HA000” value is 0.63.

Regarding B2, the “ratio of amounts bound vs CE115HA000” value came out at 0.93.

In the case of B3, the “ratio of amounts bound vs CE115HA000” value worked out at 0.26.

B4: the “ratio of amounts bound vs CE115HA000” value is 0.78.

In the case of B5, the “ratio of amounts bound vs CE115HA000” value came to 0.86.

With B6, the “ratio of amounts bound vs CE115HA000” value was 0.7.

For the molecule B7, the “ratio of amounts bound vs CE115HA000” value amounted to 0.24.

As for B8, the “ratio of amounts bound vs CE115HA000” value was found to be 0.92.

For the molecule B9, the “ratio of amounts bound vs CE115HA000” value is 0.97.

Take B10: the “ratio of amounts bound vs CE115HA000” value was found to be 0.25.

B11: the “ratio of amounts bound vs CE115HA000” value was determined as 1.04.

Consider B12, for which the “ratio of amounts bound vs CE115HA000” value was 1.19.

Consider B13, for which the “ratio of amounts bound vs CE115HA000” value came out at 0.85.

On to B14, for which the “ratio of amounts bound vs CE115HA000” value worked out at 0.23.

Turning to B15, the “ratio of amounts bound vs CE115HA000” value came to 0.8.

As for B16, the “ratio of amounts bound vs CE115HA000” value was determined as 0.24.

In the case of B17, the “ratio of amounts bound vs CE115HA000” value came out at 0.6.

As for B18, the “ratio of amounts bound vs CE115HA000” value amounted to 0.94.

As for B19, the “ratio of amounts bound vs CE115HA000” value was 1.13.

As to B20, the “ratio of amounts bound vs CE115HA000” value was found to be 0.64.

As for B21, the “ratio of amounts bound vs CE115HA000” value stood at 0.98.

For B22, the “ratio of amounts bound vs CE115HA000” value is 0.5.

Take B23: the “ratio of amounts bound vs CE115HA000” value turned out to be 0.68.

As to B24, the “ratio of amounts bound vs CE115HA000” value was 1.01.

For the molecule B25, the “ratio of amounts bound vs CE115HA000” value was determined as 0.98.

Regarding B26, the “ratio of amounts bound vs CE115HA000” value stood at 0.76.

As for B27, the “ratio of amounts bound vs CE115HA000” value came out at 0.62.

As to B28, the “ratio of amounts bound vs CE115HA000” value worked out at 1.2.

B29: the “ratio of amounts bound vs CE115HA000” value was 0.88.

As to B30, the “ratio of amounts bound vs CE115HA000” value was determined as 0.84.

With B31, the “ratio of amounts bound vs CE115HA000” value stood at 1.12.

Take B32: the “ratio of amounts bound vs CE115HA000” value was 0.33.

On to B33, for which the “ratio of amounts bound vs CE115HA000” value was 0.39.

Consider B34, for which the “ratio of amounts bound vs CE115HA000” value came to 0.83.

For B35, the “ratio of amounts bound vs CE115HA000” value was 1.1.

Regarding B36, the “ratio of amounts bound vs CE115HA000” value came to 0.88.

Regarding B37, the “ratio of amounts bound vs CE115HA000” value is 0.27.

For B38, the “ratio of amounts bound vs CE115HA000” value turned out to be 0.92.

As to B39, the “ratio of amounts bound vs CE115HA000” value was determined as 0.94.

With B40, the “ratio of amounts bound vs CE115HA000” value worked out at 0.9.

As for B41, the “ratio of amounts bound vs CE115HA000” value worked out at 0.84.

Regarding B42, the “ratio of amounts bound vs CE115HA000” value amounted to 0.4.

On to B43, for which the “ratio of amounts bound vs CE115HA000” value was 0.96.
